These results are taken from patent US20050192211A1 (Merck KGaA, published 2005).

For this experiment, the target named is T1, EPO receptor (UniProt P19235 25-508, limits assumed).
T1 sequence (looked up): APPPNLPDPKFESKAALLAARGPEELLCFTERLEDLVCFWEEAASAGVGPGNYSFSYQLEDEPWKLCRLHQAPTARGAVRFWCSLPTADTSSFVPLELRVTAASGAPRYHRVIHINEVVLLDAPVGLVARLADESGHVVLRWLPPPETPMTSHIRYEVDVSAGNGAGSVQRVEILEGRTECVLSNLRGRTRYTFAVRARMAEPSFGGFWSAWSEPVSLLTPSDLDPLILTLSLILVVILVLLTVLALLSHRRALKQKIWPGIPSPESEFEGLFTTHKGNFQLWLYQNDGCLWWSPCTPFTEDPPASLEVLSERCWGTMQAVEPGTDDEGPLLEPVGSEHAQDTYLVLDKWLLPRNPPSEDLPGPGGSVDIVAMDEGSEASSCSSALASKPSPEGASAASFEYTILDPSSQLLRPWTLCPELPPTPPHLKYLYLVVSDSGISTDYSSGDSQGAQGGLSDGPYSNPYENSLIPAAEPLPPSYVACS
As to the kind of experiment: cell-based or functional assay.

For EPO (Aranesp®) (ligand), the ED50, TF-1 cell proliferation (3H-thymidine incorporation); S.D. 0.96; N 10 was found to be 2.4 ng/mL.
